For series [1], the target named is T1, PatE' L26R.
T1 peptide: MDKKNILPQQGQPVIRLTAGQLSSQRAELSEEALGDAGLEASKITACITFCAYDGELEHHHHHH
Briefly: ITC, 20 C. A general note: Isothermal titration calorimetry measures the heat released or taken up as one component is titrated into another.

The target of a further series is T2, PatE' L29R.
T2 construct: Point mutant of PatE'
T2 peptide: T1 peptide with R26L, L29R
Nature of the series: ITC, 20 C.

Another series addresses T3, PatE' E31R.
T3 construct: Point mutant of PatE'
T3 peptide: T1 peptide with R26L, E31R
Briefly: ITC, 20 C.

Series [2] concerns the molecule itself. Briefly: X-ray crystal structures; gel filtration suggested a dimer.
For series [3], the target named is T4, PatE' (precursor peptide PatE variant, 64 amino acids, full leader, single core peptide ITACITFC, C-terminal …).
T4 peptide: T1 peptide with R26L
Nature of the series: ITC, 20 C, one-site model with stoichiometry set to 1; LynD in the cell, peptide in the syringe.

For series [4], the target named is T5, PatE' E32R.
T5 construct: Point mutant of PatE'
T5 peptide: T1 peptide with R26L, E32R
The series is described as above.

Another series deals with T6, PatE' C51A.
T6 peptide: T1 peptide with R26L, C51A
Nature of the series: X-ray co-crystal structures LynD/ATP/PatE'C51A (2.14 A) and LynD/beta,gamma-imido-ATP/PatE'C51A (3.01 A).

Series [5] has as its target T7, minimal leader LAELSEEAL synthetic peptide.
T7 chain: LAELSEEAL

Series [6] has as its target T8, full-length PatE'4 leader peptide (tryptic fragment of PatE' D2Y, K3E, K4E, R16E).
T8 chain: T1 peptide with D2Y, K3E, K4E, R16E, R26L

In another series the test system is PatE′. Nature of the series: Heterocyclization reaction with PatE′, MS analysis. The class given is biochemical. As to conditions: 2 μM enzyme, 5 mM ATP, 5 mM MgCl2, 16 h at 37° C.; TABLE 2. As to the method:
(§1) For all heterocyclization reactions, […] PatE′ (and variants,) was incubated with 2 μM enzyme in 150 mM NaCl, 10 mM HEPES pH 7.4, 1 mM TCEP, 5 mM ATP and 5 mM MgCl2 for 16 h at 37° C. Samples were analyzed by ESI or MALDI MS (LCT, Micromass or 4800 MALDI TOF/TOF Analyzer, ABSciex). For cis trans activation studies, 100 μM ITACITFCAYDG synthetic test peptide (Peptide Protein Research Ltd) was reacted with 5 μM heterocyclase enzyme in the presence and absence of 5.5 μM LAELSEEAL synthetic peptide, or 5.5 μM full-length PatE′4 leader peptide. The reaction was carried out in 150 mM NaCl, 10 mM HEPES pH 7.4, 1 mM TCEP, 5 mM ATP and 5 mM MgCl2 for 16 h at 37° C. and analyzed as above. Synthetic peptides were purchased from Peptide Protein Research Ltd.

For a further series, the system named is PatE′ L26R. Briefly: Heterocyclization reaction with PatE′ L26R. The class given is biochemical. Particulars: 2 μM enzyme, 5 mM ATP, 5 mM MgCl2, 16 h at 37° C. As for the experimental part:
as §1

Series [7] concerns the target T4, PatE' (precursor peptide PatE variant, …). Briefly: ITC, 20 C, one-site model with stoichiometry set to 1; LynD mutant in the cell, peptide in the syringe.
Series [8] deals with T1, PatE' L26R. Described as above.
Series [9] concerns the target T5, PatE' E32R. The series is described as above.
The next series has as its system PatE′ E32R. Nature of the series: Heterocyclization reaction with PatE′ E32R. The class given is biochemical. Particulars: 2 μM enzyme, 5 mM ATP, 5 mM MgCl2, 16 h at 37° C. As to the method: as §1

This note sets out measurements from patent US20180245061A1, “Modified Heterocyclase” (THE UNIVERSITY COURT OF THE UNIVERSITY OF ABERDEEN, priority 2014, published 2018).

The term Kd denotes the free concentration of one partner at which half of the binding sites on the other are occupied at equilibrium, for simple one-to-one binding. Read a high Kd as a looser complex.

Positions count from the first letter of the chain named. Numbers in names are those of the source.

PatE′, sequence (as listed by the source): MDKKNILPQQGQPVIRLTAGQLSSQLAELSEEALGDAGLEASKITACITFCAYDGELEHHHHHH
PatE′ E32R, sequence (as listed by the source, stated change not applied): as the sequence (as listed by the source) above, with E32R counted along it

B1: LynD heterocyclase, full-length (Lyngbya sp. PCC 8106) (enzyme)
chain: MQSTPLLQIQPHFHVEVIEPKQVYLLGEQANHALTGQLYCQILPLLNGQYTLEQIVEKLDGEVPPEYIDYVLERLAEKGYLTEAAPELSSEVAAFWSELGIAPPVAAEALRQPVTLTPVGNISEVTVAALTTALRDIGISVQTPTEAGSPTALNVVLTDDYLQPELAKINKQALESQQTWLLVKPVGSVLWLGPVFVPGKTGCWDCLAHRLRGNREVEASVLRQKQAQQQRNGQSGSVIGCLPTARATLPSTLQTGLQFAATEIAKWIVKYHVNATAPGTVFFPTLDGKIITLNHSILDLKSHILIKRSQCPTCGDPKILQHRGFEPLKLESRPKQFTSDGGHRGTTPEQTVQKYQHLISPVTGVVTELVRITDPANPLVHTYRAGHSFGSATSLRGLRNTLKHKSSGKGKTDSQSKASGLCEAVERYSGIFQGDEPRKRATLAELGDLAIHPEQCLCFSDGQYANRETLNEQATVAHDWIPQRFDASQAIEWTPVWSLTEQTHKYLPTALCYYHYPLPPEHRFARGDSNGNAAGNTLEEAILQGFMELVERDGVALWWYNRLRRPAVDLGSFNEPYFVQLQQFYRENDRDLWVLDLTADLGIPAFAGVSNRKTGSSERLILGFGAHLDPTIAILRAVTEVNQIGLELDKVPDENLKSDATDWLITEKLADHPYLLPDTTQPLKTAQDYPKRWSDDIYTDVMTCVNIAQQAGLETLVIDQTRPDIGLNVVKVTVPGMRHFWSRFGEGRLYDVPVKLGWLDEPLTEAQMNPTPMPF
notes: also called native LynD; cyanobactin heterocyclase LynD
For the molecule B1, the binding result is on record as “no binding” with PatE' L26R [1]; “no binding” in the series with PatE' L29R; “no binding” in the series with PatE' E31R; “binds” in [2]; “binds” with PatE' C51A. Also, the dissociation constant Kd amounted to 1.49 µM in [3] and 18.4 µM with PatE' E32R [4]. The “acceleration of the turnover of the test peptide […] (trans activation, MALDI TOF MS time course)” value in series [5] is 6.7- and 5.0-fold, respectively; in series [6] it was 6.7- and 5.0-fold, respectively.

B2: LynD Y67D (enzyme)
chain: B1 chain with Y67D
For B2, the “No. of heterocycles, peptide PatE′” value in the series with PatE′ is listed as 2. In the series with PatE′ L26R, the “No. of heterocycles, peptide PatE′ L26R” value was 2. Moreover, the values for the Kd (in [7]; with PatE' L26R [8]) were 12.9 µM and 15.2 µM, respectively.

B3: LynD R399E (enzyme)
chain: B1 chain with R399E
notes: Point mutant of LynD
Turning to B3, the “No. of heterocycles, peptide PatE′” value in the series with PatE′ was determined as 2. Also, the Kd in series [7] was 10.7 µM; in the series with PatE' E32R [9], 8.55 µM. In addition, the “No. of heterocycles, peptide PatE′ E32R” value in the series with PatE′ E32R was determined as 2.
